Source: patent US20090081760A1, “DMO METHODS AND COMPOSITIONS” (priority 2007, published 2009)

Assays:
[1] = target: the molecule itself; assay: X-ray crystal structure (homotrimer in the asymmetric unit)
Dicamba = assay: LC-MS/MS screen for oxygenase (DMO) activity: E. coli liquid culture expressing ddmC or a variant, grown with dicamba, DCSA detected in supernatant; type: cell-based
Description: An LC-MS/MS screen for oxygenase activity was used to detect DCSA. The method comprises a two stage process made up of a liquid cell culture assay coupled to an LC-MS/MS detection screen. In the liquid cell culture stage, the gene of interest, i.e. ddmC or a variant thereof, was cloned under the control of a promoter (e.g. T7 promoter, pET vector) and transformed into an E. coli host cell. […] Cells were spun down, and the supernatant was filtered and diluted tenfold with the inclusion of 8 μM salicylic acid as an internal standard. Samples of the supernatant, and/or optionally the cell pellet (or lysate thereof), from this first stage were analyzed for DCSA levels (i.e. DMO activity level) by LC-MS/MS.
While many oxygenases such as DMO are multi component systems requiring other helper enzymes for activity, it was observed that components in E. coli may substitute for these helper enzymes or functions. Thus, transformation of E. coli with a single “oxygenase” gene from a multi component system nevertheless results in measurable activity for the gene alone, even without other components being co-transformed into the same E. coli cell. Activity is observed because, in E. coli cells, surrogates with homology to the original helper enzymes (e.g. ferredoxin and reductase) may be utilized. Additionally, E. coli can take up substrate (e.g. dicamba) and excrete the product (e.g. DCSA) into the media supernatant, allowing for the speed and simplicity of this cell based screen. No lysis of cells is required. Alternatively, an HPLC-based assay for DMO activity may be utilized. Promising variants were used as templates for additional rounds DOT and or other mutagenesis methods in an iterative manner. […]
Sets of saturation mutagenesis primers (using NNS degenerate triplets) for 31 residues at the active site and involved in the electron transfer chain as indicated in Table 28 were designed and used to introduce mutations into the ddmC gene by means of terminated PCR on the template (ddmC gene with His tag and two changes, T2S+I123L (SEQ ID NO:23) in pMV4 vector (Modular Genetics, Cambridge, Mass.). Resulting PCR products were treated with DpnI to remove the parental template molecules, self-annealed and transformed into chemically competent E. coli Top10 F′ (Invitrogen, Carlsbad, Calif.). Standard DNA cloning methods were utilized (e.g. Sambrook et al., 1989). The individual colonies were grown in liquid culture. DNA was isolated by a standard miniprep procedure and used to transform the chemically competent E. coli (e.g. BL21(DE3)). […] Cells were spun down, and the supernatant was filtered and diluted tenfold with 8 μM salicylic acid as an internal standard. The DCSA levels (i.e. DMO activity level) were determined by LC-MS analysis as described above (e.g. Example 8).
Additional single substitution variants of DMO at residues corresponding to interaction (e.g. subunit interface) domains and the ferredoxin binding site were also prepared and assayed for their effect on enzymatic activity (See also Examples 8A, 8B) by the LC/MS screen. In most cases shown in Table 29, one conservative and one neutral substitution was tried at a given residue.
Table 30 lists DMO activity data (by LC/MS screen) for 58 variants relative to ddmC_M—6his (the wild type ddmC sequence with an N-terminal His tag (SEQ ID NO: 154), while Table 31 lists DMO activity data (by LC/MS screen) for 1685 variants relative to ddmC_RLE6his (the wild type ddmC sequence with T2S and I123L mutations (SEQ ID NO:23), and a C-terminal 6×His tag). The numbering of residues is based on the numbering found in SEQ ID NO:2 or SEQ ID NO:3.

B1: dicamba monooxygenase (DMO) (enzyme)
chain: MATFVRNAWYVAALPEELSEKPLGRTILDTPLALYRQPDGVVAALLDICPHRFAPLSDGILVNGHLQCPYHGLEFDGGGQCVHNPHGNGARPASLNVRSFPVVERDALIWIWPGDPALADPGAIPDFGCRVDPAYRTVGGYGHVDCNYKLLVDNLMDLGHAQYVHRANAQTDAFDRLEREVIVGDGEIQALMKIPGGTPSVLMAKFLRGANTPVDAWNDIRWNKVSAMLNFIAVAPEGTPKEQSIHSRGTHILTPETEASCHYFFGSSRNFGIDDPEMDGVLRSWQAQALVKEDKVVVEAIERRRAYVEANGIRPAMLSCDEAAVRVSREIEKLEQLEAARLEHHHHHH
notes: also called DMOw; DdmC
B1: binds [1].

B2: L282I: DMO substitution variant (protein)
chain: MATFVRNAWYVAALPEELSEKPLGRTILDTPLALYRQPDGVVAALLDICPHRFAPLSDGILVNGHLQCPYHGLEFDGGGQCVHNPHGNGARPASLNVRSFPVVERDALIWICPGDPALADPGAIPDFGCRVDPAYRTVGGYGHVDCNYKLLVDNLMDLGHAQYVHRANAQTDAFDRLEREVIVGDGEIQALMKIPGGTPSVLMAKFLRGANTPVDAWNDIRWNKVSAMLNFIAVAPEGTPKEQSIHSRGTHILTPETEASCHYFFGSSRNFGIDDPEMDGVIRSWQAQALVKEDKVVVEAIERRRAYVEANGIRPAMLSCDEAAVRVSREIEKLEQLEAARLEHHHHHH
B2 was tested, and the “Changed to: I % of control for set” value (Dicamba; residue changed to I, DCSA relative to control average of the data set) was 116.03% and the “Changed to: I DCSA values (ppm)” value (Dicamba; residue changed to I, mean +/− SD (n)) was 44.35 +/− 1.22 (4) ppm.

B3: R248K: DMO substitution variant (protein)
chain: MATFVRNAWYVAALPEELSEKPLGRTILDTPLALYRQPDGVVAALLDICPHRFAPLSDGILVNGHLQCPYHGLEFDGGGQCVHNPHGNGARPASLNVRSFPVVERDALIWICPGDPALADPGAIPDFGCRVDPAYRTVGGYGHVDCNYKLLVDNLMDLGHAQYVHRANAQTDAFDRLEREVIVGDGEIQALMKIPGGTPSVLMAKFLRGANTPVDAWNDIRWNKVSAMLNFIAVAPEGTPKEQSIHSKGTHILTPETEASCHYFFGSSRNFGIDDPEMDGVLRSWQAQALVKEDKVVVEAIERRRAYVEANGIRPAMLSCDEAAVRVSREIEKLEQLEAARLEHHHHHH
In the case of B3, the “Changed to: K % of control for set” value (Dicamba; residue changed to K, DCSA relative to control average of the data set) is reported as 155.15% and the “Changed to: K DCSA values (ppm)” value (Dicamba; residue changed to K, mean +/− SD (n)) is reported as 41.25 +/− 4.05 (4) ppm.

B4: R248M: DMO substitution variant (protein)
chain: MATFVRNAWYVAALPEELSEKPLGRTILDTPLALYRQPDGVVAALLDICPHRFAPLSDGILVNGHLQCPYHGLEFDGGGQCVHNPHGNGARPASLNVRSFPVVERDALIWICPGDPALADPGAIPDFGCRVDPAYRTVGGYGHVDCNYKLLVDNLMDLGHAQYVHRANAQTDAFDRLEREVIVGDGEIQALMKIPGGTPSVLMAKFLRGANTPVDAWNDIRWNKVSAMLNFIAVAPEGTPKEQSIHSMGTHILTPETEASCHYFFGSSRNFGIDDPEMDGVLRSWQAQALVKEDKVVVEAIERRRAYVEANGIRPAMLSCDEAAVRVSREIEKLEQLEAARLEHHHHHH
With B4 the “Changed to: M % of control for set” value (Dicamba; residue changed to M, DCSA relative to control average of the data set) was 128.37% and the “Changed to: M DCSA values (ppm)” value (Dicamba; residue changed to M, mean +/− SD (n)) was 34.13 +/− 3.09 (4) ppm.

B5: R248L: DMO substitution variant (protein)
chain: MATFVRNAWYVAALPEELSEKPLGRTILDTPLALYRQPDGVVAALLDICPHRFAPLSDGILVNGHLQCPYHGLEFDGGGQCVHNPHGNGARPASLNVRSFPVVERDALIWICPGDPALADPGAIPDFGCRVDPAYRTVGGYGHVDCNYKLLVDNLMDLGHAQYVHRANAQTDAFDRLEREVIVGDGEIQALMKIPGGTPSVLMAKFLRGANTPVDAWNDIRWNKVSAMLNFIAVAPEGTPKEQSIHSLGTHILTPETEASCHYFFGSSRNFGIDDPEMDGVLRSWQAQALVKEDKVVVEAIERRRAYVEANGIRPAMLSCDEAAVRVSREIEKLEQLEAARLEHHHHHH
With B5 the “Changed to: L % of control for set” value (Dicamba; residue changed to L, DCSA relative to control average of the data set) was 153.00% and the “Changed to: L DCSA values (ppm)” value (Dicamba; residue changed to L, mean +/− SD (n)) was 40.68 +/− 10.77 (4) ppm.

B6: Control: control (wild type) DMO of the Table 29 LC/MS screen (protein, UniProt Q5S3I3 2-339, looked up)
Dicamba O-demethylase, …: TFVRNAWYVAALPEELSEKPLGRTILDTPLALYRQPDGVVAALLDICPHRFAPLSDGILVNGHLQCPYHGLEFDGGGQCVHNPHGNGARPASLNVRSFPVVERDALIWIWPGDPALADPGAIPDFGCRVDPAYRTVGGYGHVDCNYKLLVDNLMDLGHAQYVHRANAQTDAFDRLEREVIVGDGEIQALMKIPGGTPSVLMAKFLRGANTPVDAWNDIRWNKVSAMLNFIAVAPEGTPKEQSIHSRGTHILTPETEASCHYFFGSSRNFGIDDPEMDGVLRSWQAQALVKEDKVVVEAIERRRAYVEANGIRPAMLSCDEAAVRVSREIEKLEQLEAA
For B6, the “Control DCSA Produced (ppm) Set 1 average (±SD)” value (Dicamba; Set 1 average) was 38.22 ± 7.81 ppm, the “Control DCSA Produced (ppm) Set 2 average (±SD)” value (Dicamba; Set 2 average) was 26.59 ± 4.96 ppm and the “Control DCSA Produced (ppm) Set 3 average (±SD)” value (Dicamba; Set 3 average) was 38.00 ± 6.87 ppm.
